Assay results: IntAct's records for PubMed 21785459

B1: Parkinson disease protein 7 (Homo sapiens), Q99497 (parent)
chain: MASKRALVILAKGAEEMETVIPVDVMRRAGIKVTVAGLAGKDPVQCSRDVVICPDASLEDAKKEGPYDVVVLPGGNLGAQNLSESAAVKEILKEQENRKGLIAAICAGPTALLAHEIGFGSKVTTHPLAKDKMMNGGHYTYSENRVEKDGLILTSRGPGTSFEFALAIVEALNGKEVAAQVKAPLVLKD

Variants of: B1
Settings: with fadd_human FADD

effect of a mutation on the interaction | Variant
decreasing interaction | MASKRALVILAKGAEEMETVIPVDVMRRAGIKVTVAGLAGKDPVQCSRDVVICPDASLEDAKKEGPYDVVVLPGGNLGAQNLSESAAVKEILKEQENRKGLIAAICAGPTALLAHEIGFGSKVTTHPLAKDKMMNGGHYTYSENRVEKDGLILTSRGPGTSFEFAAAIVEALNGKEVAAQVKAPLVLKD [L166A]

Variants of: B1
Settings: with fadd_human FADD
Remark: another data set of the same source

effect of a mutation on the interaction | Variant
disrupting interaction | MASKRALVILAKGAEEMETVIPVDVMRRAGIKVTVAGLAGKDPVQCSRDVVICPDASLEDAKKEGPYDVVVLPGGNLGAQNLSESAAVKEILKEQENRKGLIAAICAGPTALLAHEIGFGSKVTTHPLAKDKMMNGGHYTYSENRVEKDGLILTSRGPGTSFEFAPAIVEALNGKEVAAQVKAPLVLKD [L166P]
